Measurements from IntAct's records for PubMed 18223036.

B1: Protein pleiotropic regulatory locus 1 (Arabidopsis thaliana (Mouse-ear cress)), Q42384 (parent)
chain: MPAPTTEIEPIEAQSLKKLSLKSLKRSLELFSPVHGQFPPPDPEAKQIRLSHKMKVAFGGVEPVVSQPPRQPDRINEQPGPSNALSLAAPEGSKSTQKGATESAIVVGPTLLRPILPKGLNYTGSSGKSTTIIPANVSSYQRNLSTAALMERIPSRWPRPEWHAPWKNYRVIQGHLGWVRSVAFDPSNEWFCTGSADRTIKIWDVATGVLKLTLTGHIEQVRGLAVSNRHTYMFSAGDDKQVKCWDLEQNKVIRSYHGHLSGVYCLALHPTLDVLLTGGRDSVCRVWDIRTKMQIFALSGHDNTVCSVFTRPTDPQVVTGSHDTTIKFWDLRYGKTMSTLTHHKKSVRAMTLHPKENAFASASADNTKKFSLPKGEFCHNMLSQQKTIINAMAVNEDGVMVTGGDNGSIWFWDWKSGHSFQQSETIVQPGSLESEAGIYAACYDNTGSRLVTCEADKTIKMWKEDENATPETHPINFKPPKEIRRF
partner: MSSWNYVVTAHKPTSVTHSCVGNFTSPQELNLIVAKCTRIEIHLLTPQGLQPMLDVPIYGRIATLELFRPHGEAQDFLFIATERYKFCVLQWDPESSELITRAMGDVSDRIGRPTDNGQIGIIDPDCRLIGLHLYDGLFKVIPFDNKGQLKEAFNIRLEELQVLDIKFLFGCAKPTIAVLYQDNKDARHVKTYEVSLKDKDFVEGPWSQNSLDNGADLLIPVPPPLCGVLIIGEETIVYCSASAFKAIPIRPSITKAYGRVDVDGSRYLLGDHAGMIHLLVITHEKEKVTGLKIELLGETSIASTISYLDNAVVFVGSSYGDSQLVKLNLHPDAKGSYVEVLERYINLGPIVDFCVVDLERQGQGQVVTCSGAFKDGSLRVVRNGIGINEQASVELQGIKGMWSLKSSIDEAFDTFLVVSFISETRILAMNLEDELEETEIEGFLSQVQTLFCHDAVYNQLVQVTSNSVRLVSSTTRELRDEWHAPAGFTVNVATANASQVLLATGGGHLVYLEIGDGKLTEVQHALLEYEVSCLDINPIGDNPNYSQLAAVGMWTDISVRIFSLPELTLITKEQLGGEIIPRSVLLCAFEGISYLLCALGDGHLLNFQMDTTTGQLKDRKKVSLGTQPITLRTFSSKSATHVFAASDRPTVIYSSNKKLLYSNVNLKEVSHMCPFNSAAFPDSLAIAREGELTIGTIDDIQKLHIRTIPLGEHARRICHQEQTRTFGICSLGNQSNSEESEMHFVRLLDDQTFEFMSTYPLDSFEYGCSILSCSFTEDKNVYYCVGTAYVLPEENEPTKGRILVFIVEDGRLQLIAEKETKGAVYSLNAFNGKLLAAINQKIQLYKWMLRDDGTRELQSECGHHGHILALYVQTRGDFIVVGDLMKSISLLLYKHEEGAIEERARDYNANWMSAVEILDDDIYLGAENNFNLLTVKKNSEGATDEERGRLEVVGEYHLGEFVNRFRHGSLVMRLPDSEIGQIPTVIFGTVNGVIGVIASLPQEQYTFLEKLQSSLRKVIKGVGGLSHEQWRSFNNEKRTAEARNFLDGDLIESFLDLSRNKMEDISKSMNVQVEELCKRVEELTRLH

Variants of: B1
Conditions: with ddb1a_arath DDB1A

Row | effect of a mutation on the interaction | Variant
1 | decreasing interaction | MPAPTTEIEPIEAQSLKKLSLKSLKRSLELFSPVHGQFPPPDPEAKQIRLSHKMKVAFGGVEPVVSQPPRQPDRINEQPGPSNALSLAAPEGSKSTQKGATESAIVVGPTLLRPILPKGLNYTGSSGKSTTIIPANVSSYQRNLSTAALMERIPSRWPRPEWHAPWKNYRVIQGHLGWVRSVAFDPSNEWFCTGSADRTIKIWDVATGVLKLTLTGHIEQVRGLAVSNRHTYMFSAGDDKQVKCWDLEQNKVIRSYHGHLSGVYCLALHPTLDVLLTGGRDSVCRVWDIHTKMQIFALSGHDNTVCSVFTRPTDPQVVTGSHDTTIKFWDLHYGKTMSTLTHHKKSVRAMTLHPKENAFASASADNTKKFSLPKGEFCHNMLSQQKTIINAMAVNEDGVMVTGGDNGSIWFWDWKSGHSFQQSETIVQPGSLESEAGIYAACYDNTGSRLVTCEADKTIKMWKEDENATPETHPINFKPPKEIRRF [R290H;R332H]
